Data as given in PMC3488000.
One block for each substance: values may come before it.

How the values were obtained:
Test in all cases: SEC; Superdex 200 on an AKTA FPLC, 20 mM Tris, 1M NaCl, pH 8.0; column calibrated with globular protein standards; oligomeric state = estimated net mass divided by the calculated monomer mass (16.3 kDa)
[1] = target: FbFP F37T (Pseudomonas putida KT2440) (UniProt Q88JB0)
[2] = target: flavin-binding fluorescent protein (FbFP) from Pseudomonas putida (Pseudomonas putida KT2440) (UniProt Q88JB0)
[3] = target: FbFP F37S (Pseudomonas putida KT2440) (UniProt Q88JB0)

stoichiometry N [1]: 1.87
Substance: FbFP F37T (from UniProt Q88JB0 1-151) (natural protein)

stoichiometry N [2]: 1.81
Substance: flavin-binding fluorescent protein (FbFP) from Pseudomonas putida (from UniProt Q88JB0 1-151) (natural protein)

stoichiometry N [3]: 1.78
Substance: FbFP F37S (from UniProt Q88JB0 1-151) (natural protein)
